Patent publication US20150266957A1

Legend:
Experiment in all cases: cell-based or functional assay
[1] = target: human PROKR1 (human) (UniProt Q8TCW9)
[2] = target: cynomolgus monkey PROKR1 (cynomolgus monkey (Macaca fascicularis)) (UniProt G7PMD0)
[3] = target: mouse PROKR1 (mouse (Mus musculus)) (UniProt Q9JKL1)
[4] = target: rat PROKR1 (rat (Rattus norvegicus)) (UniProt Q8R416)
Sequence of rat PROKR1 (rat (Rattus norvegicus)) (Q8R416 whole entry): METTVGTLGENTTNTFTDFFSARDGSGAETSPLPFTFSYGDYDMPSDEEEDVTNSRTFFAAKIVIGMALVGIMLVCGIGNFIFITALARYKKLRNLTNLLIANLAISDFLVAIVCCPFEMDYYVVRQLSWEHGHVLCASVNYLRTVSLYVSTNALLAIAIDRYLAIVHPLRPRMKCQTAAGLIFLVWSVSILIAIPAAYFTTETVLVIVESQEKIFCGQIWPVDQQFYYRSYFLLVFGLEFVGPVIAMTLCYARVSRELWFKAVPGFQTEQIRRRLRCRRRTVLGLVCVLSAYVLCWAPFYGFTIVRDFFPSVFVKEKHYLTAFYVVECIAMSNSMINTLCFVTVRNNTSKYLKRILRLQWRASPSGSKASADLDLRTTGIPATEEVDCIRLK

Sequence of human PROKR1 (human) (Q8TCW9 whole entry): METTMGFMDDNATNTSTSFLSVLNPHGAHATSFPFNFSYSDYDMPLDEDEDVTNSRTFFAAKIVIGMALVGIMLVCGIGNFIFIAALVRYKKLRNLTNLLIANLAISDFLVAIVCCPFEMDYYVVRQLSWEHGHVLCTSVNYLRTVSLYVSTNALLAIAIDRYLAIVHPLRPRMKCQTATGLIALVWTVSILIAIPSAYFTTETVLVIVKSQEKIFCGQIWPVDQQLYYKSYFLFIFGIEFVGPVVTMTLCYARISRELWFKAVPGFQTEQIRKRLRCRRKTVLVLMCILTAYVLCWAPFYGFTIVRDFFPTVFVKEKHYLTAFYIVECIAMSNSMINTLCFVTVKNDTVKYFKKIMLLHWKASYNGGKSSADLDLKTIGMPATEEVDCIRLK
Sequence of cynomolgus monkey PROKR1 (cynomolgus monkey (Macaca fascicularis)) (G7PMD0 entry or part of it): as the sequence (Q8TCW9 whole entry) above, with V22A, T31A, S40G, I82V, V135I, K210R, V246F, D348N, V350A counted along it
Sequence of mouse PROKR1 (mouse (Mus musculus)) (Q9JKL1 whole entry): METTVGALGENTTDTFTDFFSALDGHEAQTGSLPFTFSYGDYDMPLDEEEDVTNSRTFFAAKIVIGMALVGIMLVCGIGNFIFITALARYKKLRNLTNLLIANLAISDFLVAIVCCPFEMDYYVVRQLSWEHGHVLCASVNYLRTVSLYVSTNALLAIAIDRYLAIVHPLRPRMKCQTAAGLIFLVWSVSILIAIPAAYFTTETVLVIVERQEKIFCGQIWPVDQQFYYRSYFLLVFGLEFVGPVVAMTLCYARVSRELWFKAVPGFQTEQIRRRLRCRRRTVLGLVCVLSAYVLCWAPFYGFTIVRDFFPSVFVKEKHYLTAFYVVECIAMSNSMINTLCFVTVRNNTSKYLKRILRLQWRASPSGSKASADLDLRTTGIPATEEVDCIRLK

| EC50 (nM), calcium mobilization, 293/hPROKR1, Experiment 1 [1] [nM] | EC50 (nM), calcium mobilization, 293/hPROKR1, Experiment 3 [1] [nM] | EC50 (nM), calcium mobilization, 293/mfPROKR1, Experiment 3 [2] [nM] | Ligand EC50 (nM), calcium flux, CHO/mPROKR1 (induced) [3] [nM] | Ligand EC50 (nM), calcium flux, CHO/mPROKR1 (non-induced) [3] [nM] | EC50 (nM), calcium mobilization, 293/hPROKR1, Experiment 2 [1] [nM] | EC50, calcium flux, 293/rPROKR1, no antibody [4] [nM] | EC50 (nM), calcium mobilization, 293/mfPROKR1, Experiment 1 [2] [nM] | EC50, calcium flux, 293/mPROKR1, no antibody [3] [nM] | Binder |
| --- | --- | --- | --- | --- | --- | --- | --- | --- | --- |
| 30.7 | 0.6 | 0.1 | 9.6 | 0.8 |  |  |  |  | human prokineticin 2 (ligand, UniProt Q9HC23-2 28-108, looked up) AVITGACDKDSQCGGGMCCAVSIWVKSIRICTPMGKLGDSCHPLTRKVPFFGRRMHHTCPCLPGLACLRTSFNRFICLAQK |
| 6.2 | 2.2 | 5 | 1.5 | 8.3 | 14.3 | 0.7 | 69 | 0.9 | human prokineticin 1 (ligand, UniProt P58294 20-105, looked up) AVITGACERDVQCGAGTCCAISLWLRGLRMCTPLGREGEECHPGSHKVPFFRKRKHHTCPCLPNLLCSRFPDGRYRCSMDLKNINF |
